Details: Escherichia phage lambda, pH 7, Thermal, Fluorescence, phosphate buffer 100 mM, reversible: yes, whole UniProt chain shown

B1: Endolysin wild type, P03706 (protein)
chain: MVEINNQRKAFLDMLAWSEGTDNGRQKTRNHGYDVIVGGELFTDYSDHPRKLVTLNPKLKSTGAGRYQLLSRWWDAYRKQLGLKDFSPKSQDAVALQQIKERGALPMIDRGDIRQAIDRCSNIWASLPGAGYGQFEHKADSLIAKFKEAGGTVREIDV
- unfolding free energy (25 °C): 7.1 kcal/mol
- Tm: 52.3 °C
- unfolding enthalpy (van 't Hoff): 113 kcal/mol
